Source: patent publication US20180177842A1 (CANIMGUIDE THERAPEUTICS, published 2018)

T1: P3028 (VFDEFKPLVEEPQNLIK, SEQ ID NO: 185), His-tagged (human)
T1 construct: Synthetic fragment of human serum albumin (positions 397-413); used in solution as His-tagged peptide PGE73; also called PGE73; not shown: His-tag
T1 peptide: VFDEFKPLVEEPQNLIK


Molecular target: T1, P3028 (VFDEFKPLVEEPQNLIK, SEQ ID NO: …)
Assay: PEPSCAN ELISA; peptide on chip, His-P3028 added;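 also: peroxidase color development with ABTS and H2O2 substrate, OD405 imaged by CCD camera with image processing and taken as raw values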
Procedure: After washing, the peroxidase substrate 2,2′-azine-di-3-ethylbenzthiazoline sulfonate (ABTS) and 2 μL of 3% H2O2 were added. The binding capacity of the mAb was measured as a color development at 405 nm (optical density, OD405). The color development was quantified with a charge-coupled device (CCD)—camera and an image processing system.
The OD405-values obtained by a CCD-camera was considered as raw data values (“rampo values,” “rampo units,” or “rampo scores”). […] First the CCD-camera made a picture of the card before peroxidase coloring and then again a picture after the peroxidase coloring. […] These values were copied into an excel file and labeled as a raw data file. […] Sometimes a well can contain an air-bubble resulting in a false-positive value. If manual inspection of the cards detect an air-bubble the value are set to 0 for well.

Binder | RAMPO Score
KKLDTFFVKISLFTER [KKLDTFFVKISLFTER (SEQ ID NO: 335)] | 415 rampo units
KKLDTFFVKLSGFTER [KKLDTFFVKLSGFTER (SEQ ID NO: 431)] | 370 rampo units
KKLDTFFVKLSLFSER [KKLDTFFVKLSLFSER (SEQ ID NO: 384)] | 369 rampo units
KKLDTFFVKLSLFTEK [KKLDTFFVKLSLFTEK (SEQ ID NO: 389)] | 291 rampo units
KKLDTFFVKLSLFLER [KKLDTFFVKLSLFLER (SEQ ID NO: 380)] | 360 rampo units
KKLDTFFVKLSLFTQR [KKLDTFFVKLSLFTQR (SEQ ID NO: 450)] | 344 rampo units
KKLDTFFVKLSLFTYR [KKLDTFFVKLSLFTYR (SEQ ID NO: 459)] | 340 rampo units
KKLDTFFVKLSLLTER [KKLDTFFVKLSLLTER (SEQ ID NO: 366)] | 448 rampo units
KKLDTFFVKLFLFTER [KKLDTFFVKLFLFTER (SEQ ID NO: 522)] | 250 rampo units
KKLDTFFVKLILFTER [KKLDTFFVKLILFTER (SEQ ID NO: 505)] | 289 rampo units
KKLDTFFVKLSLITER [KKLDTFFVKLSLITER (SEQ ID NO: 365)] | 468 rampo units
KKLDTFFVKLSLMTER [KKLDTFFVKLSLMTER (SEQ ID NO: 367)] | 1190 rampo units
KKLDTFFVKLSFFTER [KKLDTFFVKLSFFTER (SEQ ID NO: 422)] | 389 rampo units
KKLDTFFVKLSLFTEN [KKLDTFFVKLSLFTEN (SEQ ID NO: 390)] | 311 rampo units
KKLDTFFVKLSLFTDR [KKLDTFFVKLSLFTDR (SEQ ID NO: 387)] | 404 rampo units
KKLDTFFVKLDLFTER [KKLDTFFVKLDLFTER (SEQ ID NO: 474)] | 322 rampo units
KKLDTFFVKLSLFTPR [KKLDTFFVKLSLFTPR (SEQ ID NO: 439)] | 351 rampo units
KKLDTFFVKLSLFTMR [KKLDTFFVKLSLFTMR (SEQ ID NO: 524)] | 247 rampo units
KKLDTFFVKLSLFTRR [KKLDTFFVKLSLFTRR (SEQ ID NO: 531)] | 237 rampo units
KKLDTFFVKLRLFTER [KKLDTFFVKLRLFTER (SEQ ID NO: 464)] | 333 rampo units
KKLDTFFVKLSLFTEH [KKLDTFFVKLSLFTEH (SEQ ID NO: 528)] | 239 rampo units
KKLDTFFVKLSLFIER [KKLDTFFVKLSLFIER (SEQ ID NO: 379)] | 375 rampo units

Binder | RAMPO Score
KKLDTFFVKLSLFVER [KKLDTFFVKLSLFVER (SEQ ID NO: 385)] | 380 rampo units
KKLDTFFVKLSLFTEY [KKLDTFFVKLSLFTEY (SEQ ID NO: 393)] | 311 rampo units
KKLDTFFVKLSLFTLR [KKLDTFFVKLSLFTLR (SEQ ID NO: 525)] | 246 rampo units
KKLDTFFVKLALFTER [KKLDTFFVKLALFTER (SEQ ID NO: 477)] | 318 rampo units
KKLDTFFVKLSLFHER [KKLDTFFVKLSLFHER (SEQ ID NO: 378)] | 463 rampo units
KKLDTFFVKLSLFTET [KKLDTFFVKLSLFTET (SEQ ID NO: 392)] | 292 rampo units
KKLDTFFVKLSLGTER [KKLDTFFVKLSLGTER (SEQ ID NO: 363)] | 531 rampo units
KKLDTFFVKLSLFFER [KKLDTFFVKLSLFFER (SEQ ID NO: 376)] | 348 rampo units
KKLDTFFVKLSLFMER [KKLDTFFVKLSLFMER (SEQ ID NO: 381)] | 501 rampo units
KKLDTFFVKLQLFTER [KKLDTFFVKLQLFTER (SEQ ID NO: 348)] | 768 rampo units
KKLDTFFVKLSLFTEM [KKLDTFFVKLSLFTEM (SEQ ID NO: 529)] | 238 rampo units
KKLDTFFVKLELFTER [KKLDTFFVKLELFTER (SEQ ID NO: 532)] | 234 rampo units
KKLDTFFVKLSLFWER [KKLDTFFVKLSLFWER (SEQ ID NO: 386)] | 374 rampo units
KKLDTFFVKLSLFTEF [KKLDTFFVKLSLFTEF (SEQ ID NO: 388)] | 297 rampo units
KKLDTFFVKLSLNTER [KKLDTFFVKLSLNTER (SEQ ID NO: 368)] | 862 rampo units
KKLDTFFVKKSLFTER [KKLDTFFVKKSLFTER (SEQ ID NO: 506)] | 285 rampo units
KKLDTFFVKLCLFTER [KKLDTFFVKLCLFTER (SEQ ID NO: 457)] | 341 rampo units
KKLDTFFVKLSLCTER [KKLDTFFVKLSLCTER (SEQ ID NO: 362)] | 400 rampo units
KKLDTFFVKLGLFTER [KKLDTFFVKLGLFTER (SEQ ID NO: 99)] | 288 rampo units
KKLDTFFVKLSLFKER [KKLDTFFVKLSLFKER (SEQ ID NO: 517)] | 259 rampo units
KKLDTFFVKLSLFCER [KKLDTFFVKLSLFCER (SEQ ID NO: 520)] | 254 rampo units
KKLDTFFVKLSLFYER [KKLDTFFVKLSLFYER (SEQ ID NO: 514)] | 270 rampo units

Binder | RAMPO Score
KKLDTFFVKLKLFTER [KKLDTFFVKLKLFTER (SEQ ID NO: 473)] | 323 rampo units
KKLDTFFVKLSLFNER [KKLDTFFVKLSLFNER (SEQ ID NO: 382)] | 599 rampo units
KKLDTFFVKLSLHTER [KKLDTFFVKLSLHTER (SEQ ID NO: 364)] | 1050 rampo units
KKLDTFFVKLSAFTER [KKLDTFFVKLSAFTER (SEQ ID NO: 350)] | 462 rampo units
KKLDTFFVKLSKFTER [KKLDTFFVKLSKFTER (SEQ ID NO: 438)] | 355 rampo units
KKLDTFFVKLMLFTER [KKLDTFFVKLMLFTER (SEQ ID NO: 346)] | 744 rampo units
KKLDTFFVKLSIFTER [KKLDTFFVKLSIFTER (SEQ ID NO: 352)] | 456 rampo units
KKLDTFFVKLSLFTHR [KKLDTFFVKLSLFTHR (SEQ ID NO: 478)] | 318 rampo units
KKLDTFFVKLSLFQER [KKLDTFFVKLSLFQER (SEQ ID NO: 493)] | 301 rampo units
KKLDTFFVKLNLFTER [KKLDTFFVKLNLFTER (SEQ ID NO: 347)] | 451 rampo units
KKLDTFFVKLSLFRER [KKLDTFFVKLSLFRER (SEQ ID NO: 33)] | 264 rampo units
KKLDTFFVKLSLFGER [KKLDTFFVKLSLFGER (SEQ ID NO: 377)] | 343 rampo units
KKLDTFFVKLSLFTEV [KKLDTFFVKLSLFTEV (SEQ ID NO: 521)] | 254 rampo units
KKLDTFFVKLSCFTER [KKLDTFFVKLSCFTER (SEQ ID NO: 455)] | 342 rampo units
KKLDTFFVKLSHFTER [KKLDTFFVKLSHFTER (SEQ ID NO: 351)] | 460 rampo units
KKLDTFFVKLHLFTER [KKLDTFFVKLHLFTER (SEQ ID NO: 345)] | 535 rampo units
KKLDTFFVKLSLFTKR [KKLDTFFVKLSLFTKR (SEQ ID NO: 471)] | 324 rampo units
KKLDTFFVKLPLFTER [KKLDTFFVKLPLFTER (SEQ ID NO: 470)] | 328 rampo units
KKLDTFFVKLSLFAER [KKLDTFFVKLSLFAER (SEQ ID NO: 489)] | 305 rampo units
KKLDTFFVKLSLATER [KKLDTFFVKLSLATER (SEQ ID NO: 361)] | 525 rampo units
KKLDTFFVKLSLFPER [KKLDTFFVKLSLFPER (SEQ ID NO: 383)] | 551 rampo units
